The values below come from patent US7462599.

For orientation: Ki means the dissociation constant of the complex between target and ligand, obtained from inhibition or displacement.

Series [1] addresses recombinant human glutaminyl cyclase (QC, EC 2.3.2.5) (human) (UniProt Q16769). Description: competitive inhibition of the human QC catalyzed reaction, 30° C, 0.05 M Tris-HCl pH 8.0, 5 mM EDTA.
Series [2] concerns T1, H-Gln(NMe)-Phe-Lys-Ala-Glu-NH2.
T1 sequence: QFKAE

In series [3] the test system is T2, H-Gln-Ala-Ala-Ala-Ala-NH2.
T2 sequence: QAAAA

Series [4] deals with T3, H-Gln-Ala-Ala-NH2.
T3 sequence: QAA

In series [5] the test system is T4, H-Gln-Ala-Ala-Ser-Ala-Ala-NH2.
T4 sequence: QAASAA

The subject of series [6] is T5, H-Gln-Ala-NH2.
T5 sequence: QA

Series [7] has as its system T6, H-Gln-Ala-OH.
T6 sequence: QA

Series [8] has as its system T7, H-Gln-Arg-Gly-Ile-NH2.
T7 sequence: QRGI

The test system of series [9] is T8, H-Gln-Arg-Tyr-Phe-NH2.
T8 sequence: QRYF

Series [10] relates to T9, H-Gln-Asn-Gly-Ile-NH2.
T9 sequence: QNGI

Series [11] concerns T10, H-Gln-Gln-OH.
T10 sequence: QQ

The subject of series [12] is T11, H-Gln-Gln-Tyr-Phe-NH2.
T11 sequence: QQYF

For series [13], the system named is T12, H-Gln-Glu-Ala-Ala-NH2.
T12 sequence: QEAA

In series [14] the test system is T13, H-Gln-Glu-Ala-Phe-NH2.
T13 sequence: QEAF

In series [15] the test system is T14, H-Gln-Glu-Asp-Leu-NH2.
T14 sequence: QEDL

Series [16] relates to T15, H-Gln-Glu-OH.
T15 sequence: QE

Series [17] concerns T16, H-Gln-Glu-Tyr-Ala-NH2.
T16 sequence: QEYA

Series [18] has as its system T17, H-Gln-Glu-Tyr-NH2.
T17 sequence: QEY

Series [19] concerns T18, H-Gln-Glu-Tyr-Phe-NH2.
T18 sequence: QEYF

The subject of series [20] is T19, H-Gln-Gly-OH.
T19 sequence: QG

Series [21] relates to T20, H-Gln-Gly-Pro-OH.
T20 sequence: QGP

In series [22] the test system is T21, H-Gln-His-Tyr-Phe-NH2.
T21 sequence: QHYF

In series [23] the test system is T22, H-Gln-Lys-Arg-Leu-NH2.
T22 sequence: QKRL

For series [24], the system named is T23, H-Gln-Phe-Ala-NH2.
T23 sequence: QFA

Series [25] relates to T24, H-Gln-Pro-Tyr-Phe-NH2.
T24 sequence: QPYF

Series [26] deals with T25, H-Gln-Ser-Tyr-Phe-NH2.
T25 sequence: QSYF

The test system of series [27] is T26, H-Gln-Trp-Ala-NH2.
T26 sequence: QWA

The test system of series [28] is T27, H-Gln-Tyr-Ala-OH.
T27 sequence: QYA

Series [29] deals with T28, H-Gln-cyclo(Nε-Lys-Arg-Pro-Ala-Gly-Phe).
T28 sequence: QKRPAGF

Series [30] has as its system T29, H-βhomoGln-Phe-Lys-Arg-Leu-Ala-NH2.
T29 sequence: QFKRLA

The subject of series [31] is T30, [Gln^1]-FPP.
T30 sequence: QEP

For series [32], the system named is T31, [Gln^1]-Gastrin.
T31 sequence: QGPWLEEEEEAYGWMDF

The subject of series [33] is T32, [Gln^1]-GnRH.
T32 sequence: QHWSYGLRPG

In series [34] the test system is [Gln^1]-Neurotensin.
In series [35] the target is [Gln^3]-glucagon(3-29) (UniProt P01275).
Series [36] concerns T33, [Gln^5]-substance P(5-11).
T33 sequence: QQFFGLM

Sequence of [Gln^3]-glucagon(3-29) (P01275 23-49): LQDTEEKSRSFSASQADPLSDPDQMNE
Sequence of recombinant human glutaminyl cyclase (QC, EC 2.3.2.5) (human) (Q16769 29-361 limits assumed): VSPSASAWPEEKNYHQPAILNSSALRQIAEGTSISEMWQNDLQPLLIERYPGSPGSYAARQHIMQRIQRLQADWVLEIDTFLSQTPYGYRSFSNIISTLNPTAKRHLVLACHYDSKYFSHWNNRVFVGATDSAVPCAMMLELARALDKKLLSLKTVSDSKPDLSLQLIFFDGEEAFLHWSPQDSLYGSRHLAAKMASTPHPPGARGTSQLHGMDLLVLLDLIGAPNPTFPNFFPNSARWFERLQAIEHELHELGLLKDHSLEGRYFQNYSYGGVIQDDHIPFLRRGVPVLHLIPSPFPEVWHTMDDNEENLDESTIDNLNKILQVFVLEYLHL

For the substance H-His-Trp-OH (peptide), the inhibitory constant (Ki) in series [1] is 600 µM.

In the case of “glutaminyl cyclase from Carica papaya latex”, the “conversion to the pyroglutamyl peptide (MALDI-TOF)” value in series [2] is recorded as “The methylated glutaminyl residue was only converted into a pyroglutamyl residue by papaya QC”. Besides, the KM (substrate conversion by QC) in series [3] was 197 µM; in series [4] it was 164 µM; in series [5], 216 µM; in series [6], 212 µM; in [7], 158 µM; in series [8], 123 µM. Moreover, the KM (substrate conversion by QC) in series [9] was 124 µM; in series [10], 153 µM; in series [11], 44 µM; in series [12], 45 µM; in series [13] it was 102 µM; in series [14], 81 µM. For the same substance, the KM (substrate conversion by QC) was determined as 107 µM in [15]; 106 µM in [16]; 113 µM in series [17]; 103 µM in series [18]; 100 µM in series [19]; 641 µM in series [20]. Moreover, the KM (substrate conversion by QC) in [21] was found to be 333 µM; in series [22], 92 µM; in series [23], 118 µM; in [24] it was 111 µM; in series [25], 149 µM; in [26] it was 135 µM. For the same substance, the KM (substrate conversion by QC) in [27] was 78 µM; in series [28] it was 63 µM; in series [29], “KM-values of 240±14 µM and 133±5 µM for human and papaya QC, respectively”; in series [30], “KM=3.1±0.3 mM”; in [31], 232 µM; in series [32] it was 34 µM. Further, the values for the KM (substrate conversion by QC) in [33] and in series [34] were 169 µM and 40 µM, respectively. Also, the KM (0.05 M Tricine-NaOH, pH 8.0) in series [7] was 0.137 mM; in [8], 0.106 mM; in [15] it was 0.109 mM; in [16], 0.098 mM; in series [23], 0.102 mM; in series [27], 0.079 mM. The KM (0.05 M Tricine-NaOH, pH 8.0, 0.5 M KCl) in [7] was found to be 0.143 mM; in series [8], 0.065 mM; in series [15] it was 0.094 mM; in [16], 0.094 mM; in series [23], 0.053 mM; in [27], 0.072 mM. The “substrate conversion, determined qualitatively by MALDI-TOF” value in [35] and in series [36] was “*” in each case.
